In patent US20250154287A1 (Pfizer, published 2025):

Biological target: recombinant human CD3 epsilon (human, UniProt P07766 23-126, limits assumed)
Test: SPR

Chain of recombinant human CD3 epsilon (P07766 23-126 limits assumed): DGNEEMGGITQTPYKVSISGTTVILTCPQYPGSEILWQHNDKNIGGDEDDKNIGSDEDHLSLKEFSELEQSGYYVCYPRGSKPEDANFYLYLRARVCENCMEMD

Kd: 0.017 µM
B1: BMD-IgA-1156 (anti-CD3 binding arm h2B5v6) (antibody, V domains shown)
VH: EVQLVESGGGLVQPGGSLRLSCAASGFTFSDYYMTWVRQAPGKGLEWVAFIRNQARGYTSDHNPSVKGRFTISRDNAKNSLYLQMNSLRAEDTAVYYCARDRPSYYVLDYWGQGTTVTVSS
VL: DIQMTQSPSSLSASVGDRVTITCTSSQSLFNVRSQKNYLAWYQQKPGKAPKLLIYWASTRESGVPSRFSGSGSGTDFTLTISSLQPEDFATYYCKQSYDLFTFGGGTKVEIKR
notes: Only the anti-CD3 chains are tied to this name
